The DeepSol protein solubility set

Experiment: soluble on expression in E. coli; label from the status in PepcDB or PDB records
In the case of “MTWLLFGAGNGVGGCLLQRAIECEQAVVLVLRNPEQAKHWREQGVTVVEGDACDPETVAEACRVAGPSAIVVSTMGGGTVNYQGHRTVIDGAEQAGIKRMLLVTSLGCGDSWPLLSPRARAAFGFAVREKSLAESWLQSSTLDHCIVRPGGLLDVVATHNAKLTQGAATLGLVSRSDVALAVDQLLQQPVFGNHIYNLIDPDLTMPAIPLEHHHHHH”, the “soluble on expression in E. coli” value was “not soluble”. In the case of “MTWNESHGERIIRRFERDIFPWIGSKPISEIAAPELLATVRRIESRGAVETAHRALGNCGQVFRYAIATARATRDISADLRGALPPVKGEHLEHHHHHH”, the “soluble on expression in E. coli” value was “not soluble”. With “MTYDPKTAVKQDSFSGKEPFNILLLGTDTGAFGRKEVRGNSDTMILVTVNPAKKKLSLMSIPRDTMARMIGTDNFSVHKINAAYNIGGAKMAMRTTSKVLNVPIKYYISMNMGGMRKIVDGVGGVTVTPPLTFTYDGYTFTKGKTVHLNGSQALAYSRMRYDDPKGDYGRQLRQREVIMSVLEHALSFNTLKNLDSILGSVSTSLRTNLTFDSMVKISKNYRKCTNNMSSDYLHGVGAMIGDASYQVMSDRELQRTSNIVRNDLGLDSMDIDNNETYQNSMNSQFDWNSGDSNQVYYIYDPYTDELWNGDRAYLEHHHHHH” the “soluble on expression in E. coli” value was “soluble”. For “MVADVKSPAGLAAFNTTLAEQAFATGFVLSGEDAQLFAALGSAPNASTYPNVARWYANVASYTDAERKTWASAGGSAPAAAAADGDDFDLFGSDDEEEDAEKAKIVEERLAAYAEKKAKKAGPIAKSSVILDVKPWDDETDLGEMEKLVRSIEMDGLVWGGAKLIPIGYGIKKLQIITVIEDLKVSVDDLIEKITGDFEDHVQSVDIVAFNKI”, the “soluble on expression in E. coli” value was “not soluble”. For “MVAEVSPKLAASPMKKPFGFRGKMGKWCCCCFPCCRGSGKNNMGAWRDHDDSAFTEPRYHVRREDLGKLHRAAWWGEVPRADLIVMLRGPGINKRDKKKRTALHLACANGNSEVVSLLLDRQCQLHVFDSKKRTALIKAVQCQEDECALMLLQHGTDPNLPDMYGNTALHYAVYNEDKLMAKTLLLYGADIESKNKGGLTPLLLAVHGQKQRMVKFLIKKKANLNALDRFGRICQLLSDYKENQMPNNSSGNSNPEQDLKLTSEEEPQRLKGSENSQHEKVTQEPDINKDCDREVEEEMQKHGSNNVGLSENLTDGAAAGNGDGGLVPQRKSRKHENQQFPNTEIEEYHRPEKKSNEKNKVKSQIHSVDNLDDITWPSEIASEDYDLLFSNYETFTLLIEQLKMDFNDSASLSKIQDAVISEEHLLELKNSHYEQLTVEVEQMENMVHVLQK”, the “soluble on expression in E. coli” value was “not soluble”. With “MVALQIPSLAATVRQDFPILNQEINGHPLVYLDNAATSQKPRAVLEKLMHYYENDNANVHRGAHQLSVRATDAYEAVRNKVAKFINARSPREIVYTRNATEAINLVAYSWGMNNLKAGDEIITTVMEHHSNLVPWQMVAAKTGAVLKFVQLDEQESFDLEHFKTLLSEKTKLVTVVHISNTLGCVNPAEEIAQLAHQAGAKVLVDACQSAPHYPLDVQLIDCDWLVASGHKMCAPTGIGFLYGKEEILEAMPPFFGGGEMIAEVFFDHFTTGELPHKFEAGTPAIAEAIALGAAVDYLTDLGMENIHNYEVELTHYLWQGLGQIPQLRLYGPNPKHGDRAALASFNVAGLHASDVATMVDQDGIAIRSGHHCTQPLHRLFDASGSARASLYFYNTKEEIDLFLQSLQATIRFFSDDDFTV” the “soluble on expression in E. coli” value was “soluble”. With “MVAPGKKFTLRHIFKNVTKWKTGEIFYSPDEEHFNVPWQMCIHRENGNMCVILCCLKVEEDRVPWKINFEYQLKIVNISGMSIVKAGNKICTEKRRFVRRQFISRNTLKSGYLVDDIITVEATVKITKVSKKQLRSFDKSNKKFSDVILAIEDEKFYVLKKFLASHSTYFKTLLLGKFEEAERQEVKLQDIDSTDFQNLMEVLYGESAIDDGTIKGILELADMYDMPFPIRKCEEFLIDSSEKSIKEKLKIAKQYKMENLKNSCLSKVNTVRDIKAAMTGDPTEMDLSVLAALLGKSLALH” the “soluble on expression in E. coli” value was “not soluble”. With “MVARRKGERVVRKNEVENVQQRACANRRERQRTKELNDAFTLLRKLIPSMPSDKMSKIHTLRIATDYISFLDEMQKNGCKLYGHSIFDEKRGYNLQSAFNMWRGNNGYTPIAGPSQLPPLQSAHIPPPAPSSIPPHCLMPQPWYQTCPPPKQEFHELCPISTPNPNSNPNQLTPIHWQ” the “soluble on expression in E. coli” value was “not soluble”. For “MVDEVAKKKSKKEKDKDSKLEKALKAQNDLIWNIKDELKKVCSTNDLKELLIFNKQQVPSGESAILDRVADGMVFGALLPCEECSGQLVFKSDAYYCTGDVTAWTKCMVKTQTPNRKEWVTPKEFREISYLKKLKVKKQDRIFPPETSASVALEHHHHHH”, the “soluble on expression in E. coli” value was “soluble”. In the case of “MVDPQLDGPQLAALAAVVELGSFDAAAERLHVTPSAVSQRIKSLEQQVGQVLVVREKPCRATTAGIPLLRLAAQTALLESEALAEMGGNASLKRTRITIAVNADSMATWFSAVFDGLGDVLLDVRIEDQDHSARLLREGVAMGAVTTERNPVPGCRVHPLGEMRYLPVASRPFVQRHLSDGFTAAAAAKAPSLAWNRDDGLQDMLVRKAFRRAITRPTHFVPTTEGFTAAARAGLGWGMFPEKLAASPLADGSFVRVCDIHLDVPLYWQCWKLDSPIIARITDTVRAAASGLYRGQQRRRRPG”, the “soluble on expression in E. coli” value was “soluble”. With “MVEELFYKKILKNLFSDPVQITLWNGETIQYGEGEPQFHVTFHKPLSKKEIAKDPSIAFGEAYMNGDLEIEGNLEKAIQSIYKRQDSFLGDSKLQYFKSKWNFSKQKNKDDIAHHYDIGNDFYKLWLDETMTYSCAYFQNEQDSLTTAQHNKVNHILKKLNLQKGDTLLDIGCGWGELITAAAKQYGVKAMGVTLSEEQYAKASERIKQEGLTDLVEVSLLDYRDIKNQKFDKIVSVGMIEHVGKDNITQYFETVNTLLNDGGISLLHCITSPANGGATNGWIEKYIFPGGYVPAVNELITNMTNEQFFIVDVESLRRHYGKTLQHWARNFENVMEEVRKTKDERFIRMWRLYLNACAASFFTGNIDLHQFVFTKGINDTIPMTRSYMYE” the “soluble on expression in E. coli” value was “not soluble”. With “MVEIKLENIVKKFGNFTALNNINLKIKDGEFMALLGPSGSGKSTLLYTIAGIYKPTSGKIYFDEKDVTELPPKDRNVGLVFQNWALYPHMTVYKNIAFPLELRKAPREEIDKKVREVAKMLHIDKLLNRYPWQLSGGQQQRVAIARALVKEPEVLLLDEPLSNLDALLRLEVRAELKRLQKELGITTVYVTHDQAEALAMADRIAVIREGEILQVGTPDEVYYKPKYKFVGGFLGNPPMNFVEAKVEDGKLVITEKSKLPIPKQYVEIVKETGITEVIIGFRPHDAEIVKGEGEGIVGEVYSFEPLGREQIVTVSVNDSIVKVFAPEGEHFSFGEKVTIKVKEELLVLFDKKTEKALEFSKL” the “soluble on expression in E. coli” value was “soluble”. With “MVEKIWFENHPLKYLLWPLLWPLSVLFGAISRSKRQQFQTGRKQAYQAPVPVVVVGNITAGGNGKTPVVVWLVEQLQHLGYKPGVVSRGYGAKAPQYPLVLNDDTPTQHCGDEPKLIHRRTGAPVAVDPVRANAVKALVELDVDIIITDDGLQHYALERDVELVIVDGNRRFGNECLIPLGPLREGVERLQEVDFIITNGGLAHQGEISMSLAPSKAINLKTKQQVDVSELKALVAFAGIGHPPRFFNTLESMHADVKVTKGFADHQDFDQKELEALALQGANVIMTEKDAVKCSDYAQDNWWYLPVSAQLEPKDAERILNRIKEVKATYGSPSAAAALEHHHHHH” the “soluble on expression in E. coli” value was “soluble”. With “MVELVISPSLTVNSDCLDKLKFNRADAAVWTLSDRQGITKSAPLRVSQLFSRSCPRVLPRQPSTAMAAYGQTQYSAGIQQATPYTAYPPPAQAYGIPSFSTSPTGQSPYTYQMHGTTGFYQGGNGLGNAAGFGSVHQDYPSYPGFPQSQYPQYYGSSYNPPYVPASSICPSPLSTSTYVLQEASHNVPNQSSESLAGEYNTHNGPSTPAKEGDTDRPHRASDGKLRGRSKRSSDPSPAGDNEIERVFVWDLDETIIIFHSLLTGTFASRYGKDTTTSVRIGLMMEEMIFNLADTHLFFNDLEDCDQIHVDDVSSDDNGQDLSTYNFSADGFHSSAPGANLCLGSGVHGGVDWMRKLAFRYRRVKEMYNTYKNNVGGLIGTPKRETWLQLRAELEALTDLWLTHSLKALNLINSRPNCVNVLVTTTQLIPALAKVLLYGLGSVFPIENIYSATKTGKESCFERIMQRFGRKAVYVVIGDGVEEEQGAKKHNMPFWRISCHADLEALRHALELEYL” the “soluble on expression in E. coli” value was “not soluble”. With “MVERYSLSPMKDLWTEEAKYRRWLEVELAVTRAYEELGMIPKGVTERIRNNAKIDVELFKKIEEKTNHDVVAFVEGIGSMIGEDSRFFHYGLTSSDVLDTANSLALVEAGKILLESLKEFCDVLWEVANRYKHTPTIGRTHGVHAEPTSFGLKVLGWYSEMKRNVQRLERAIEEVSYGKISGAVGNYANVPPEVEEKALSYLGLKPEPVSTQVVPRDRHAFYLSTLAIVAAGIERIAVEIRHLQRTEVLEVEEPFRKGQRGSSAMPHKKNPITCERLTGLSRMMRAYVDPSLENIALWHERDISHSSVERYVFPDATQTLYYMIVTATNVVRNMKVNEERMKKNIDLTKGLVFSQRVLLKLIEKGLTRKEAYDIVQRNALKTWNSEKHFLEYLLEDEEVKKLVTKEELEELFDISYYLKHVDHIFERFEKE” the “soluble on expression in E. coli” value was “soluble”. In the case of “MVESGKAQMESFRIDNNGIQKKSRTKFIAGVGKSLRSAKNLTSKTVQTQFVAYPELAQLLPIFPAERLKKLILNGLDGQEYKQLIDLDQWKQARIFHGYAENLIIPIEKFFHFERFDVHLARFTEADALRLRAMIDRSAHFGFAGICCNYMNNSALKRIFNVEHENFYQTPDERSFDVQCRPGEISITKFGYTVE”, the “soluble on expression in E. coli” value was “not soluble”. With “MVGKRNLPVISRNFDLSPGVLRFSASRLRLKKGEKKPKFTKDTSAKLPKLQRNGTKFALGHSKTVTLRKTLTPGTVLIVLAGRHKGKRVVFLKQLPQSGLLLVTGPHKINGFPLRRIGQAFVIATSLKVNVSGVKIPEHINDEYFKRKSTAQKTGKNIFASGKTEYTVSEQRKKDIKTVDAPILAAIKKHPEHKFLFGYLGTRFSLGKNQYPHKMQF” the “soluble on expression in E. coli” value was “not soluble”. For “MVHHSTKLPKNGGSEPKLVGAYLVSGSRSRIVDLINMIRELNAPILVFTRYPTFYQDLGENIKVIWITQASEDGIPPTKLHVIQDYAIKFAKENKYAVVIIDCVEYLLLYNEFASVFKFLASLKDYLIMMNSALVLAVDEKALDEKYYTLLLNEFEPLLEHHHHHH”, the “soluble on expression in E. coli” value was “soluble”. For “MVIAYVDANLQTNRQTIYFDHDLNRNKYNTIQLKKLTMTQDSDSEYEIERIIDHVSFLEAYESFYGQNVKRFAAIFSEERFKRTKKPQLISNYFFLVKWLGYGNKEMTWEPESNIPDSVYLYEYKKLNNMVMNRMNLKVSLTFTSRRKGYTPPVILEELQERKPKPQFLNMSNMAITLNDNLNNGKFGIVPVPKYKKKFGQNVNYLKFGNEVYKMKNVSFKDSTNNDIDNRVQQHHHEDRSFLQSMIKHNNIVRMRDLFVSYNKLDETVNITSIYDWCHQNLRQQLNNEKVSWKKVCRDILNALSFIHPYGIHQGVSLDHIYYHKGGTYKLSHFNNFFFGKRIPAEKVKSDRVELAPRLYNLKFKLGRNSDIYALAIVLLQCHNKKFSFRVNPSSVMEIEEDIAKGMSAFENKDDRHFLKSLLRARLHVYHGSGHYRFTSSSLLHHPVLQEPTARSVECFYFHSMLASPMKEIIHYHANDKISDVLQRFISLYHTSQEAEDKKYIMMFTKDTSSCDSVVLLNSLENFERVVDIDLTIMKNTLLIAPIILPSPENENCQKFLIIYEQELGGCPIVIETPEVNAAKFAKQLKEYSVSHEYRNRRLGLFPKLPGGDQQENGGLPEFSHHVWQMQLESNDDTVIKNRFDIASEIEMPLSGEMLEWDDVAGIANYGEILRNNSDNTTSRRKRETCSSDELDEAHAKREKVD”, the “soluble on expression in E. coli” value was “not soluble”.
